{"source": "paper PMC2958111", "target": "VEGF receptor 2 (UniProt P35968)", "sequence (P35968 20-764)": "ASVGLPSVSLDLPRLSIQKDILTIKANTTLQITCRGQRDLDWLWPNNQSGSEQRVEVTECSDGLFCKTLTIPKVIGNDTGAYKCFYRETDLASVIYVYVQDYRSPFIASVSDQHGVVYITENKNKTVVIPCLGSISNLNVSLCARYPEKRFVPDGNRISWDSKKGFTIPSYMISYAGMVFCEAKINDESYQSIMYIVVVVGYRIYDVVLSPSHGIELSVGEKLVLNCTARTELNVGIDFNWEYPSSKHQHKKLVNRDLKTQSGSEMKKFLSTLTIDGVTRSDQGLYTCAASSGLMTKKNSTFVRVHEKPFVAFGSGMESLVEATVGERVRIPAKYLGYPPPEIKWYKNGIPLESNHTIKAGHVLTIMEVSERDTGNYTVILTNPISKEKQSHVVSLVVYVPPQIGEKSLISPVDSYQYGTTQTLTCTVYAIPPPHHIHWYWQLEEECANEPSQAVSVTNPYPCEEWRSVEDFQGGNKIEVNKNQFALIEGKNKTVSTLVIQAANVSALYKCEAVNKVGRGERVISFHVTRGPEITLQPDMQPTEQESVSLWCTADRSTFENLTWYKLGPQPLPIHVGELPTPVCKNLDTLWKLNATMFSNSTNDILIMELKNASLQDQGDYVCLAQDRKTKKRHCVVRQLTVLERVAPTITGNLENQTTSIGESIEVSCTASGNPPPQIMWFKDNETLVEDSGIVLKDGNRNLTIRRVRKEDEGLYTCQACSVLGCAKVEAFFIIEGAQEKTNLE", "test": "ELISA; VEGFR1 or VEGFR2 (200 ng/well) covalently attached with ethyl-carbodiimide to an amino-acid-coated 96-well plate; VEGF-A (200 ng/ml) applied alone or mixed with heparin, HS or porcine ocular fluid, 4°C overnight; washed with ice-cold PBS; bound VEGF-A measured with components of a human VEGF ELISA kit; values relative to controls (%)", "data": [{"substance": "vascular endothelial growth factor-A, VEGF121 isoform (ligand)", "values": [{"measurement": "percent reduction of binding with 1,000 µg/ml soluble heparin", "result": 9.4, "unit": "%"}]}, {"substance": "vascular endothelial growth factor-A, VEGF165 isoform (ligand)", "values": [{"measurement": "percent inhibition of binding by 1,000 µg/ml of HS from bovine kidney", "result": 88.1, "unit": "%"}, {"measurement": "percent inhibition of binding by porcine ocular fluid (63.2 µg/ml of HS)", "result": 85.7, "unit": "%"}, {"measurement": "percent reduction of binding with 1,000 µg/ml soluble heparin", "result": 59.8, "unit": "%"}]}]}
